Laboratory results reported in patent publication US9267129B2, “Compositions and methods for conferring herbicide resistance” (BEN-GURION UNIVERSITY OF THE NEGEV RESEARCH AND DEVELOPMENT …, priority 2011, dated 2016).

Assay: AHAS catalytic activity, pyruvate dependence
Type: biochemical, Parietochloris incisa
Protocol: To overexpress the hexahistidine (6xHis)-tagged PiAHAS genes in E. coli strain JM109, plasmids pQE-WT and pQE-MUT were used. These plasmids were constructed by inserting the BamHI-SalI fragment containing the cloned PiAHAS wt and mutant genes into plasmid pQE30 (Qiagen, Hilden, Germany). These plasmids express PiAHAS fused at its N-terminus to the pQE30 6xHis leader. pQE-WT and pQE-MUT were transformed into E. coli for expression. The transformed cells were grown, IPTG induced, and harvested as described previously (Hill C et al. Purification of Escherichia coli acetohydroxyacid synthase isoenzyme II and reconstitution of active enzyme from its individual pure subunits. Biochem. J. 1997, 327, 891-898). Bacterial cells were disrupted by sonication in a binding buffer with 20 mM imidazol, 0.5 M sodium chloride, 50 mM sodium dihydrogen phosphate (pH 8.0), 20 μM FAD and 50 μl/g cells of protease inhibitor cocktail (Sigma-Aldrich, Israel). After 30 min of centrifugation at 20,000×g, the supernatant was loaded on a 1.5×8 cm column of Ni2+-nitrilotriacetatic acid-agarose (Qiagen) previously washed with the binding buffer. The column was then washed with 80 ml of the binding buffer, and the His-AHAS protein eluted with 0.4 M imidazol in the binding buffer. The fractions were dialyzed against 50 mM potassium phosphate buffer (pH 7.6), containing 20 μM FAD. The protein was concentrated for storage at −20 °C by dialysis against same buffer, containing 50% glycerol. The AHAS catalytic activity was determined as previously described (Bar-Ilan A et al. Binding and activation of thiamin diphosphate in acetohydroxyacid synthase. Biochemistry (N.Y.) 2001, 40, 11946-11954). The reactions were carried for 20 min at 37 °C in 0.1 M potassium phosphate buffer (pH 7.6), containing 10 mM magnesium chloride, 0.1 mM ThDP, 75 μM FAD, 5 mM EDTA, 1 mM DTT with 100 mM pyruvate as substrate, except where otherwise indicated. The activity is expressed in units (U) (1 U=1 μmol of acetolactate formed min^−1). Km for pyruvate and Ki for SMM were determined by varying the concentration of the factor in question. Protein concentration was determined by the dye-binding method of Bradford (Bradford MM. A rapid and sensitive method for the quantitation of microgram quantities of protein utilizing the principle of protein-dye binding. Anal. Biochem. 1976, 72, 248-254), with bovine serum albumin as standard. Km calculations were fit with the program “Sigma-Plot” to Michaelis-Menten equation. For Ki calculations, the lines were fit to equations: V=Vo×Ki/(Ki+[SMM]), for wild-type; V=Vf+(Vo−Vf)×Ki/(Ki+[SMM]), for mutant.
Enzymatic activity of the wild type and mutant forms of AHAS in the presence of different Pyruvate substrate concentrations was assayed with 6.9 μg/ml of PiAHAS wild-type protein and 11.5 μg/ml of mutant protein (FIG. 5) and the specific activity and Km were calculated.

B1: Wild-type: Parietochloris incisa acetohydroxyacid synthase (AHAS), SEQ ID NO: 1, expressed as N-terminal hexahistidine-tagged protein (protein, listed as Parietochloris incisa)
chain: MQGTMRPTAGALQQTVGCWHVPAGIPHAQQALRGRILPEELKQRCSATKPRAARQSAVTAAKLAEGKAGTPSRSLRQQPAAPQQQQQQQDSNELVALREAAKASLSSPAPAEWVDRFGSEPRKGADILVQCLEREGAFRVFAYPGGASMEIHQALTRSGIIRNILCRHEQGEIFAAEGYAKCTGDVGVCIATSGPGATNLVTGLADAMLDSVPLVAITGQVPRKMIGTDGFQETPIVEVTRQITKHNFLVMDLDDLPRIMKEAFYLARTGRPGPVLVDVPKDIQQQLAVPDWDTPMAISGYMSRLPAPPNPSQLAAVVRALKEAKRPTLYVGGGALDSSAELREFVRLTGIPVAQTLMGLGTFPEEDPLALQMLGMHGTVYANYAVNDSDLLLAFGVRFDDRVTGKLEAFASRACIVHIDIDPAEICKNKEAHIPICADLRASLIALNELLRRDPLPEGAFADWRAAIEAKKQEFPMTFPERDDVIIPQRAIQMLYEETNGEAIISTGVGQHQMWAAQWYQYNEPRRWVTSGGLGSMGFGLPSALGAAAVAYDGTDGRPKKVVVDIDGDGSFLMNCQELATAAVEGLETKIMILNNQHLGMVVQWEDRFYKANRAHTYLGHRANEYHTTLDESHIFPDFVMMAKSCGVPGRRVIKPEELRGAIREMLDTPGPFLLDVMVPHVEHVLPMIPGGGSFKDIITKGDGRDEY
modifications: N-terminal hexahistidine tag
**Q.** What does the source list for B1?
**A.** Km (37° C., pH 7.6): 49.4 ± 2.1 mM; Specific activity (37° C., pH 7.6): 3.00 ± 0.05 U × mg^−1; Specific activity (purified protein): 3 U/mg

B2: Mutant: Parietochloris incisa AHAS with Trp605 substituted by Serine (W605S), SEQ ID NO: 2, hexahistidine-tagged (protein, listed as Parietochloris incisa)
chain: MQGTMRPTAGALQQTVGCWHVPAGIPHAQQALRGRILPEELKQRCSATKPRAARQSAVTAAKLAEGKAGTPSRSLRQQPAAPQQQQQQQDSNELVALREAAKASLSSPAPAEWVDRFGSEPRKGADILVQCLEREGAFRVFAYPGGASMEIHQALTRSGIIRNILCRHEQGEIFAAEGYAKCTGDVGVCIATSGPGATNLVTGLADAMLDSVPLVAITGQVPRKMIGTDGFQETPIVEVTRQITKHNFLVMDLDDLPRIMKEAFYLARTGRPGPVLVDVPKDIQQQLAVPDWDTPMAISGYMSRLPAPPNPSQLAAVVRALKEAKRPTLYVGGGALDSSAELREFVRLTGIPVAQTLMGLGTFPEEDPLALQMLGMHGTVYANYAVNDSDLLLAFGVRFDDRVTGKLEAFASRACIVHIDIDPAEICKNKEAHIPICADLRASLIALNELLRRDPLPEGAFADWRAAIEAKKQEFPMTFPERDDVIIPQRAIQMLYEETNGEAIISTGVGQHQMWAAQWYQYNEPRRWVTSGGLGSMGFGLPSALGAAAVAYDGTDGRPKKVVVDIDGDGSFLMNCQELATAAVEGLETKIMILNNQHLGMVVQSEDRFYKANRAHTYLGHRANEYHTTLDESHIFPDFVMMAKSCGVPGRRVIKPEELRGAIREMLDTPGPFLLDVMVPHVEHVLPMIPGGGSFKDIITKGDGRDEY
modifications: hexahistidine tag
**Q.** What does the source list for B2?
**A.** Km (37° C., pH 7.6): 71.7 ± 2.9 mM; Specific activity (37° C., pH 7.6): 1.46 ± 0.03 U × mg^−1; decrease in affinity to the Pyruvate substrate compared to wild type (mutant versus wild type): 2 fold; decrease in specific / enzymatic activity compared to wild type (mutant versus wild type): 2 fold
